Bridge positions count the residues as written; N and C are the ends. Square brackets hold non-standard residues; d marks the D form. Trp(1-Me) = Cn1cc(C[C@H](N)C(=O)O)c2ccccc21; NMeW = CN[C@@H](Cc1c[nH]c2ccccc12)C(=O)O; NMeH = CN[C@@H](Cc1c[nH]cn1)C(=O)O; NMeR = CN[C@@H](CCCNC(=N)N)C(=O)O; NMeQ = CN[C@@H](CCC(N)=O)C(=O)O; NMeD = CN[C@@H](CC(=O)O)C(=O)O; NMeC = CN[C@@H](CS)C(=O)O; Sar = CNCC(=O)O

As a reminder, the Kd is the concentration at which binding is half-saturated. A higher Kd goes with a looser complex. As a reminder, the koff is the first-order rate constant of dissociation. A low value points to slow dissociation. The term kon denotes the rate constant with which the complex forms. A low value points to slow association.

Experiment [1] concerns the target T1, C3 purified from fresh human plasma (human, UniProt P01024 23-1663). In words: cell-based or functional assay.
For experiment [2], the target named is biotinylated C3b (UniProt P01024). In words: SPR, Biacore 3000; biotinylated C3b on streptavidin chip, peptide injected; 1:1 fit. A general note: Surface plasmon resonance follows binding to a sensor surface in real time, without labels.
In experiment [3] the target is T1, C3 purified from fresh human plasma. In words: cell-based or functional assay. The source holds these as a separate data set.
Experiment [4] shares this target. Description: ITC; peptide titrated into C3, PBS, 25 C. On the procedure:
(§1) ITC analysis. All ITC experiments were performed with the Microcal VP-ITC calorimeter (Microcal Inc., Northampton, Mass.), using protein concentrations of 1.8-5 μM C3 in the cell and peptide concentrations of 40-100 μM of individual compstatin analogs in the syringe. All titrations were performed in PBS (10 mM phosphate buffer with 150 mM NaCl, pH 7.4) at 25° C. using multiple peptide injections of 2-7 μL each. The raw isotherms were corrected for the heats of dilution by subtracting the isotherms representing peptide injections into the buffer. The resulting isotherms were fitted to a single site of sites models using Origin 7.0 software, and the model that produced the lowest χ² value was deemed to be appropriate for the respective data set. The Gibbs free energy was calculated as ΔG=ΔH−TΔS. Each experiment was repeated at least twice.
(§2) Characterization of binding thermodynamics.
A general note: In ITC the heat of successive injections is recorded.

Experiment [5] deals with biotinylated C3b (UniProt P01024). Description: SPR on immobilised C3b; ratio relative to peptide 14.
Experiment [6] concerns the target T1, C3 purified from fresh human plasma. In words: ITC with C3; relative to peptide 14. Here is the method:
as §1, §2

Experiment [7] has the same target. Description: cell-based or functional assay. The source holds these as a separate data set.
Experiment [8] shares this target. Description: cell-based or functional assay. This is another data set of the same source.

T1 sequence (P01024 23-1663): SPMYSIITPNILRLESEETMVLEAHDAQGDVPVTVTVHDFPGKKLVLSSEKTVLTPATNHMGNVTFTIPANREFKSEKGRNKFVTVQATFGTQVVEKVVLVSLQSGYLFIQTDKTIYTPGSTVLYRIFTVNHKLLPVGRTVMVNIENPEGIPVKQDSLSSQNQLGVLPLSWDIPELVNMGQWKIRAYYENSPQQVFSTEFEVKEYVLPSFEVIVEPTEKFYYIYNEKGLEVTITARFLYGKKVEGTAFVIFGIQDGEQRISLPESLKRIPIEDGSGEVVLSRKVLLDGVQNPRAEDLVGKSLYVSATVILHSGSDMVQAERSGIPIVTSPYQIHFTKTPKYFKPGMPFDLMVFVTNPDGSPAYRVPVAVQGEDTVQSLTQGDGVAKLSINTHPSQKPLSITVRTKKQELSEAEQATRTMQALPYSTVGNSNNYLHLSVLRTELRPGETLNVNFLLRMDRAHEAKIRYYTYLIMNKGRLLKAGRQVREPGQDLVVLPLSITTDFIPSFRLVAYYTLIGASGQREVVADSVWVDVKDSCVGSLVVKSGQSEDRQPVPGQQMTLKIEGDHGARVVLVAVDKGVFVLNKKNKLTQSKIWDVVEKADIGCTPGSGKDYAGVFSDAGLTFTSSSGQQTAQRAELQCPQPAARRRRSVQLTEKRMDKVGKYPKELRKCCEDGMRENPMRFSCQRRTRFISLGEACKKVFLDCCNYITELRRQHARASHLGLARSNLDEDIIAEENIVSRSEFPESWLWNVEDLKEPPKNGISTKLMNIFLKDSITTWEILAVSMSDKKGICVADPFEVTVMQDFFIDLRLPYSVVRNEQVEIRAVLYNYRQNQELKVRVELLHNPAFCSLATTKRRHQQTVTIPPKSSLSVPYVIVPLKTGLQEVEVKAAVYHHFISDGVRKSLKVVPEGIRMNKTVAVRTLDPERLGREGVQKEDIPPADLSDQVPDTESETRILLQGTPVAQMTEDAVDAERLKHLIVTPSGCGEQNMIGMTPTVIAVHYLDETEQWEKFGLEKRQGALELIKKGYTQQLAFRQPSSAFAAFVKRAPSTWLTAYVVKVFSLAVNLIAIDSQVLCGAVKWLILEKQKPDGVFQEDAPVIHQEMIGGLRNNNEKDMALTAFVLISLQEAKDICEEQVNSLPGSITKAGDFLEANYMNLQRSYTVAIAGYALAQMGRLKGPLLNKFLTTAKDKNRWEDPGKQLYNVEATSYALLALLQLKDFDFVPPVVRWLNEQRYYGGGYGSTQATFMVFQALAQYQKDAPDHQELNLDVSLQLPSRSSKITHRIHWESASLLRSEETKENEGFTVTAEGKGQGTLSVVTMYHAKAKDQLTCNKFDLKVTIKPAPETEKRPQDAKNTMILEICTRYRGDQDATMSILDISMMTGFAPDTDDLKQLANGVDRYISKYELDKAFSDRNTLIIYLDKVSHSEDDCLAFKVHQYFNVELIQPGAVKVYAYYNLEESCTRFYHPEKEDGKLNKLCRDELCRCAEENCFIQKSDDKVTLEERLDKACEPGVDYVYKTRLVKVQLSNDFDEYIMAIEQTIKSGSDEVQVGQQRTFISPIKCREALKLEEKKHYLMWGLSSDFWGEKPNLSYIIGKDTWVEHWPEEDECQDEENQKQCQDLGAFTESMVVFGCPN

B1: Peptide 17-ABP (peptide)
peptide: ICVWQDWGAHRCIK
chain: RLIEDICLPRWGCLWEDD
modifications: propiolic acid on the N-terminus, joined by triazole to the azido-Lys of the peptide 17 chain; N-terminal acetyl; 1-methyl-Trp at 4; N-methyl-Gly (Sar) at 8; disulfide Cys2-Cys12 (cyclic); two mini-PEG-3 spacers between Ile13 and a C-terminal Lys-NH2; 2-azidoacetyl on the Lys side chain, joined by azide-alkyne cycloaddition (triazole) to the ABP
In the case of B1, in experiment [1], the “IC50 (nM, CP), inhibition of classical pathway complement activation, ELISA, human serum” value was 242 nM and the “IC50 fold change relative to peptide 17” value was found to be 0.38 fold. In addition, in the experiment with biotinylated C3b [2], the dissociation constant (Kd) turned out to be 0.032 µM, the koff worked out at 0.0036 s⁻¹ and the on-rate constant (kon) was determined as 100000 M⁻¹ s⁻¹.

B2: Ac-I[CVYQ(NMe)DWGAHRC]T-NH2 (peptide)
peptide: Ac-ICVYQ[NMeD]WGAHRCT-NH2
modifications: disulfide 2-12
SMILES: CC[C@H](C)[C@H](NC(C)=O)C(=O)N[C@H]1CSSC[C@@H](C(=O)N[C@H](C(N)=O)[C@@H](C)O)NC(=O)[C@H](CCCNC(=N)N)NC(=O)[C@H](Cc2c[nH]cn2)NC(=O)[C@H](C)NC(=O)CNC(=O)[C@H](Cc2c[nH]c3ccccc23)NC(=O)[C@H](CC(=O)O)N(C)C(=O)[C@H](CCC(N)=O)NC(=O)[C@H](Cc2ccc(O)cc2)NC(=O)[C@H](C(C)C)NC1=O
As to B2, in experiment [3], the “IC50 (CP), inhibition of classical pathway complement activation, ELISA” value (“IC50 (CP), inhibition” for short) is 44 µM and the “IC50-fold change relative to peptide 1” value is 0.06 fold.

B3: peptide 16 (peptide)
peptide: Ac-ICV[Trp(1-Me)]QDWGAHRCI-NH2
modifications: disulfide 2-12
SMILES: CC[C@H](C)[C@H](NC(=O)[C@@H]1CSSC[C@H](NC(=O)[C@@H](NC(C)=O)[C@@H](C)CC)C(=O)N[C@@H](C(C)C)C(=O)N[C@@H](Cc2cn(C)c3ccccc23)C(=O)N[C@@H](CCC(N)=O)C(=O)N[C@@H](CC(=O)O)C(=O)N[C@@H](Cc2c[nH]c3ccccc23)C(=O)NCC(=O)N[C@@H](C)C(=O)N[C@@H](Cc2c[nH]cn2)C(=O)N[C@@H](CCCNC(=N)N)C(=O)N1)C(N)=O
notes: Peptide 14 scaffold with Gly^8, Ile^13; also called 16 (6)
With B3, in experiment [4], the “-TΔS” value was 5.7 kcal/mol, the ΔG is -10.9 kcal/mol and the ΔH is -16.6 kcal/mol. For the same molecule, in the experiment with biotinylated C3b [5], the rKD SPR came to 1.1 fold, the rka came out at 1 fold and the rkd was determined as 1 fold. In experiment [6], the “-TΔΔS” value was -1.3 kcal/mol, the “rKD ITC” value came out at 1.2 fold, the ΔΔG was -0.2 kcal/mol and the ΔΔH was determined as 1 kcal/mol.

B4: Ac-I[CVYQDWGA(NMe)HRC]T-NH2 (peptide)
peptide: Ac-ICVYQDWGA[NMeH]RCT-NH2
modifications: disulfide 2-12
SMILES: CC[C@H](C)[C@H](NC(C)=O)C(=O)N[C@H]1CSSC[C@@H](C(=O)N[C@H](C(N)=O)[C@@H](C)O)NC(=O)[C@H](CCCNC(=N)N)NC(=O)[C@H](Cc2c[nH]cn2)N(C)C(=O)[C@H](C)NC(=O)CNC(=O)[C@H](Cc2c[nH]c3ccccc23)NC(=O)[C@H](CC(=O)O)NC(=O)[C@H](CCC(N)=O)NC(=O)[C@H](Cc2ccc(O)cc2)NC(=O)[C@H](C(C)C)NC1=O
Turning to B4, in experiment [3], the “IC50 (CP), inhibition” value was found to be 94 µM and the “IC50-fold change relative to peptide 1” value worked out at 0.03 fold.

B5: Ac-I[CVYQDWGAHR(NMe)C]T-NH2 (peptide)
peptide: Ac-ICVYQDWGAHR[NMeC]T-NH2
modifications: disulfide 2-12
SMILES: CC[C@H](C)[C@H](NC(C)=O)C(=O)N[C@H]1CSSC[C@@H](C(=O)N[C@H](C(N)=O)[C@@H](C)O)N(C)C(=O)[C@H](CCCNC(=N)N)NC(=O)[C@H](Cc2c[nH]cn2)NC(=O)[C@H](C)NC(=O)CNC(=O)[C@H](Cc2c[nH]c3ccccc23)NC(=O)[C@H](CC(=O)O)NC(=O)[C@H](CCC(N)=O)NC(=O)[C@H](Cc2ccc(O)cc2)NC(=O)[C@H](C(C)C)NC1=O
Turning to B5, in experiment [3], the “IC50 (CP), inhibition” value was found to be 154 µM and the “IC50-fold change relative to peptide 1” value was 0.02 fold.

B6: peptide 23 (peptide)
peptide: Ac-ICV[Trp(1-Me)]QDW[Sar]AHRCF-NH2
modifications: disulfide 2-12
SMILES: CC[C@H](C)[C@H](NC(C)=O)C(=O)N[C@H]1CSSC[C@@H](C(=O)N[C@@H](Cc2ccccc2)C(N)=O)NC(=O)[C@H](CCCNC(=N)N)NC(=O)[C@H](Cc2c[nH]cn2)NC(=O)[C@H](C)NC(=O)CN(C)C(=O)[C@H](Cc2c[nH]c3ccccc23)NC(=O)[C@H](CC(=O)O)NC(=O)[C@H](CCC(N)=O)NC(=O)[C@H](Cc2cn(C)c3ccccc23)NC(=O)[C@H](C(C)C)NC1=O
For B6, the “IC50, inhibition of classical pathway complement activation, ELISA” value in experiment [7] came out at 0.257 µM. In addition, the “rP, relative potency compared to peptide 14” value in experiment [8] stood at 0.8 fold.

B7: Ac-I[CVY(NMe)QDWGAHRC]T-NH2 (peptide)
peptide: Ac-ICVY[NMeQ]DWGAHRCT-NH2
modifications: disulfide 2-12
SMILES: CC[C@H](C)[C@H](NC(C)=O)C(=O)N[C@H]1CSSC[C@@H](C(=O)N[C@H](C(N)=O)[C@@H](C)O)NC(=O)[C@H](CCCNC(=N)N)NC(=O)[C@H](Cc2c[nH]cn2)NC(=O)[C@H](C)NC(=O)CNC(=O)[C@H](Cc2c[nH]c3ccccc23)NC(=O)[C@H](CC(=O)O)NC(=O)[C@H](CCC(N)=O)N(C)C(=O)[C@H](Cc2ccc(O)cc2)NC(=O)[C@H](C(C)C)NC1=O
For B7, in experiment [3], the “IC50 (CP), inhibition” value was 33 µM and the “IC50-fold change relative to peptide 1” value was found to be 0.07 fold.

B8: Ac-I[(NMe)CVYQDWGAHRC]T-NH2 (peptide)
peptide: Ac-I[NMeC]VYQDWGAHRCT-NH2
modifications: disulfide 2-12
SMILES: CC[C@H](C)[C@H](NC(C)=O)C(=O)N(C)[C@H]1CSSC[C@@H](C(=O)N[C@H](C(N)=O)[C@@H](C)O)NC(=O)[C@H](CCCNC(=N)N)NC(=O)[C@H](Cc2c[nH]cn2)NC(=O)[C@H](C)NC(=O)CNC(=O)[C@H](Cc2c[nH]c3ccccc23)NC(=O)[C@H](CC(=O)O)NC(=O)[C@H](CCC(N)=O)NC(=O)[C@H](Cc2ccc(O)cc2)NC(=O)[C@H](C(C)C)NC1=O
Regarding B8, in experiment [3], the “IC50 (CP), inhibition” value was determined as 7.5 µM and the “IC50-fold change relative to peptide 1” value worked out at 0.3 fold.

B9: Ac-I[CVYQDW(NMe)GAHRC]T-NH2 (peptide)
peptide: Ac-ICVYQDW[Sar]AHRCT-NH2
modifications: disulfide 2-12
SMILES: CC[C@H](C)[C@H](NC(C)=O)C(=O)N[C@H]1CSSC[C@@H](C(=O)N[C@H](C(N)=O)[C@@H](C)O)NC(=O)[C@H](CCCNC(=N)N)NC(=O)[C@H](Cc2c[nH]cn2)NC(=O)[C@H](C)NC(=O)CN(C)C(=O)[C@H](Cc2c[nH]c3ccccc23)NC(=O)[C@H](CC(=O)O)NC(=O)[C@H](CCC(N)=O)NC(=O)[C@H](Cc2ccc(O)cc2)NC(=O)[C@H](C(C)C)NC1=O
For the molecule B9, in experiment [3], the “IC50 (CP), inhibition” value was found to be 1.43 µM and the “IC50-fold change relative to peptide 1” value came out at 1.7 fold.

B10: Ac-I[CVYQD(NMe)WGAHRC]T-NH2 (peptide)
peptide: Ac-ICVYQD[NMeW]GAHRCT-NH2
modifications: disulfide 2-12
SMILES: CC[C@H](C)[C@H](NC(C)=O)C(=O)N[C@H]1CSSC[C@@H](C(=O)N[C@H](C(N)=O)[C@@H](C)O)NC(=O)[C@H](CCCNC(=N)N)NC(=O)[C@H](Cc2c[nH]cn2)NC(=O)[C@H](C)NC(=O)CNC(=O)[C@H](Cc2c[nH]c3ccccc23)N(C)C(=O)[C@H](CC(=O)O)NC(=O)[C@H](CCC(N)=O)NC(=O)[C@H](Cc2ccc(O)cc2)NC(=O)[C@H](C(C)C)NC1=O
For B10, in experiment [3], the “IC50 (CP), inhibition” value stood at 25 µM and the “IC50-fold change relative to peptide 1” value amounted to 0.1 fold.

B11: Ac-I[CVYQDWGAH(NMe)RC]T-NH2 (peptide)
peptide: Ac-ICVYQDWGAH[NMeR]CT-NH2
modifications: disulfide 2-12
SMILES: CC[C@H](C)[C@H](NC(C)=O)C(=O)N[C@H]1CSSC[C@@H](C(=O)N[C@H](C(N)=O)[C@@H](C)O)NC(=O)[C@H](CCCNC(=N)N)N(C)C(=O)[C@H](Cc2c[nH]cn2)NC(=O)[C@H](C)NC(=O)CNC(=O)[C@H](Cc2c[nH]c3ccccc23)NC(=O)[C@H](CC(=O)O)NC(=O)[C@H](CCC(N)=O)NC(=O)[C@H](Cc2ccc(O)cc2)NC(=O)[C@H](C(C)C)NC1=O
Regarding B11, in experiment [3], the “IC50 (CP), inhibition” value came to 32 µM and the “IC50-fold change relative to peptide 1” value was determined as 0.08 fold.

B12: Peptide 17-ABM (peptide)
peptide: ICVWQDWGAHRCIK
modifications: not fully specified; N-terminal acetyl; 1-methyl-Trp at 4; N-methyl-Gly (Sar) at 8; disulfide Cys2-Cys12 (cyclic); two mini-PEG-3 spacers between Ile13 and a C-terminal Lys-NH2; albumin-binding small molecule (ABM) on the Lys side chain
Take B12: in experiment [1], the “IC50 (nM, CP), inhibition of classical pathway complement activation, ELISA, human serum” value came out at 137 nM and the “IC50 fold change relative to peptide 17” value turned out to be 0.67 fold. In the experiment with biotinylated C3b [2], this molecule had a Kd of 0.0047 µM, an off-rate (koff) of 0.0056 s⁻¹ and an association rate constant (kon) of 1.2e+06 M⁻¹ s⁻¹.

B13: peptide 22 (peptide)
peptide: Ac-ICV[Trp(1-Me)]QDW[Sar]AHRCH-NH2
modifications: disulfide 2-12
SMILES: CC[C@H](C)[C@H](NC(C)=O)C(=O)N[C@H]1CSSC[C@@H](C(=O)N[C@@H](Cc2c[nH]cn2)C(N)=O)NC(=O)[C@H](CCCNC(=N)N)NC(=O)[C@H](Cc2c[nH]cn2)NC(=O)[C@H](C)NC(=O)CN(C)C(=O)[C@H](Cc2c[nH]c3ccccc23)NC(=O)[C@H](CC(=O)O)NC(=O)[C@H](CCC(N)=O)NC(=O)[C@H](Cc2cn(C)c3ccccc23)NC(=O)[C@H](C(C)C)NC1=O
Take B13: the “IC50, inhibition of classical pathway complement activation, ELISA” value in experiment [7] was found to be 0.16 µM.

Source of the values: US20120178694A1 (University of Pennsylvania, published 2012).
